Results reported in the supplement of paper PMC9112550, “Optimization of the antimicrobial peptide Bac7 by deep mutational scanning” (BMC Biology, 2022).

test system: Escherichia coli TOP10; assay: shrunken log2 fold change of peptide-encoding DNA abundance (4.5 h post-induction vs induction); higher = less antimicrobial activity (less host growth inhibition); settings: time post-induction: 4.5 h; library: site-saturation at positions 5, 18, 19, 20
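Further: peptides expressed intracellularly from a pBAD plasmid library in pooled LB shake-flask culture, induced with 0.3% L-arabinose, DNA abundance read by NGS, three biological replicates, DESeq2 with apeglm shrinkage.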

Sequence	shrunken log2 fold change
RRIRERPPRLPRPRPRPWPPPRP	0.045
RRIRLRPPRLPRPRPRPSAGPRP	-0.0364
RRIRIRPPRLPRPRPRPDSKPRP	-0.325
RRIRCRPPRLPRPRPRPVNVPRP	-0.249
RRIRQRPPRLPRPRPRPEYMPRP	-0.0613
RRIRCRPPRLPRPRPRPKTMPRP	-0.172
RRIRARPPRLPRPRPRPKWHPRP	0.235
RRIRNRPPRLPRPRPRPDTYPRP	-0.0291
RRIRKRPPRLPRPRPRPWKNPRP	-0.00973
RRIRMRPPRLPRPRPRPLKIPRP	-0.0474
RRIRWRPPRLPRPRPRPDFWPRP	0.582
RRIRLRPPRLPRPRPRPREKPRP	0.15
RRIRMRPPRLPRPRPRPPNEPRP	0.2
RRIRQRPPRLPRPRPRPFGPPRP	0.0675
RRIRLRPPRLPRPRPRPNHQPRP	-0.19
RRIRWRPPRLPRPRPRPSDKPRP	-0.246
RRIRDRPPRLPRPRPRPCLTPRP	0.0157
RRIRARPPRLPRPRPRPFHGPRP	0.0917
RRIRTRPPRLPRPRPRPNAEPRP	0.25
RRIRTRPPRLPRPRPRPARVPRP	0.195
RRIRTRPPRLPRPRPRPAMLPRP	-0.0605
RRIRCRPPRLPRPRPRPHTHPRP	-0.676
RRIRFRPPRLPRPRPRPYHQPRP	-0.963
RRIRIRPPRLPRPRPRPATCPRP	-0.349
RRIRYRPPRLPRPRPRPYSEPRP	-0.199

Sequence	shrunken log2 fold change
RRIRVRPPRLPRPRPRPVLWPRP	0.453
RRIRIRPPRLPRPRPRPTCNPRP	-0.313
RRIRRRPPRLPRPRPRPRMCPRP	0.17
RRIRCRPPRLPRPRPRPPKGPRP	0.405
RRIRGRPPRLPRPRPRPCGYPRP	0.216
RRIRKRPPRLPRPRPRPAISPRP	0.214
RRIRDRPPRLPRPRPRPKCHPRP	0.028
RRIRERPPRLPRPRPRPNPQPRP	0.0138
RRIRMRPPRLPRPRPRPYHMPRP	-0.000687
RRIRRRPPRLPRPRPRPMPCPRP	0.0929
RRIRKRPPRLPRPRPRPPGSPRP	0.618
RRIRWRPPRLPRPRPRPIEHPRP	-0.133
RRIRCRPPRLPRPRPRPHAFPRP	-0.647
RRIRFRPPRLPRPRPRPMQPPRP	0.287
RRIRSRPPRLPRPRPRPMITPRP	-0.19
RRIRRRPPRLPRPRPRPLTQPRP	0.342
RRIRFRPPRLPRPRPRPIATPRP	-0.0109
RRIRSRPPRLPRPRPRPNQFPRP	-0.232
RRIRDRPPRLPRPRPRPSPDPRP	0.312
RRIRSRPPRLPRPRPRPIMPPRP	-0.121
RRIRQRPPRLPRPRPRPMAQPRP	0.006
RRIRNRPPRLPRPRPRPYSNPRP	-0.155
RRIRTRPPRLPRPRPRPHLHPRP	-0.844
RRIRNRPPRLPRPRPRPMTHPRP	-0.405
RRIRLRPPRLPRPRPRPSLWPRP	0.062

Sequence	shrunken log2 fold change
RRIRYRPPRLPRPRPRPGLCPRP	-0.0365
RRIRHRPPRLPRPRPRPPQPPRP	0.216
RRIRQRPPRLPRPRPRPIGSPRP	-0.00968
RRIRGRPPRLPRPRPRPFDWPRP	0.0459
RRIRFRPPRLPRPRPRPLCVPRP	-0.394
RRIRYRPPRLPRPRPRPWERPRP	0.0306
RRIRLRPPRLPRPRPRPLTAPRP	-0.0325
RRIRKRPPRLPRPRPRPSNDPRP	0.257
RRIRIRPPRLPRPRPRPCCAPRP	-0.172
RRIRCRPPRLPRPRPRPMEGPRP	-0.00776
RRIRDRPPRLPRPRPRPVIVPRP	0.0947
RRIRYRPPRLPRPRPRPYGDPRP	-0.525
RRIRIRPPRLPRPRPRPDNTPRP	-0.947
RRIRMRPPRLPRPRPRPQSQPRP	0.226
RRIRYRPPRLPRPRPRPGRNPRP	0.191
RRIRHRPPRLPRPRPRPLAHPRP	0.0514
RRIRGRPPRLPRPRPRPIRNPRP	-0.0262
RRIRFRPPRLPRPRPRPMAPPRP	0.114
RRIRMRPPRLPRPRPRPHKRPRP	0.126
RRIRSRPPRLPRPRPRPGETPRP	0.488
RRIRARPPRLPRPRPRPTKMPRP	0.319
RRIRPRPPRLPRPRPRPCTPPRP	-0.167
RRIRVRPPRLPRPRPRPKCQPRP	0.106
RRIRYRPPRLPRPRPRPNYIPRP	-1.2
RRIRARPPRLPRPRPRPGLIPRP	0.0698

Sequence	shrunken log2 fold change
RRIRARPPRLPRPRPRPQWRPRP	0.218
RRIRQRPPRLPRPRPRPVEHPRP	-0.00992
RRIRPRPPRLPRPRPRPREMPRP	0.319
RRIRVRPPRLPRPRPRPDYTPRP	-0.495
RRIRDRPPRLPRPRPRPNDHPRP	-0.53
RRIRGRPPRLPRPRPRPFSPPRP	0.0723
RRIRIRPPRLPRPRPRPIYIPRP	-0.159
RRIRSRPPRLPRPRPRPFCSPRP	-0.212
RRIRFRPPRLPRPRPRPWTTPRP	-0.0381
RRIRSRPPRLPRPRPRPRESPRP	0.092
RRIRYRPPRLPRPRPRPSLIPRP	-1.15
RRIRERPPRLPRPRPRPVVTPRP	-0.95
RRIRFRPPRLPRPRPRPLNSPRP	-0.377
RRIRPRPPRLPRPRPRPAFMPRP	-0.0434
RRIRVRPPRLPRPRPRPWPEPRP	0.465
RRIRMRPPRLPRPRPRPRSVPRP	0.871
RRIRARPPRLPRPRPRPNDEPRP	0.361
RRIRGRPPRLPRPRPRPGTGPRP	0.84
RRIRQRPPRLPRPRPRPWHFPRP	-0.0375
RRIRGRPPRLPRPRPRPYEPPRP	0.0834
RRIRQRPPRLPRPRPRPFIEPRP	-0.0062
RRIRPRPPRLPRPRPRPNNQPRP	-0.353
RRIRRRPPRLPRPRPRPQYAPRP	0.0794
RRIRVRPPRLPRPRPRPCHGPRP	0.000197
RRIRIRPPRLPRPRPRPQNHPRP	-0.871

Sequence	shrunken log2 fold change
RRIRRRPPRLPRPRPRPYSRPRP	-0.391
RRIRERPPRLPRPRPRPYWCPRP	-1.14
RRIRGRPPRLPRPRPRPTRVPRP	0.748
RRIRWRPPRLPRPRPRPVVLPRP	-0.0385
RRIRCRPPRLPRPRPRPDRRPRP	0.0327
RRIRQRPPRLPRPRPRPICCPRP	0.259
RRIRYRPPRLPRPRPRPMARPRP	-0.0425
RRIRVRPPRLPRPRPRPDQGPRP	0.00375
RRIRVRPPRLPRPRPRPAELPRP	0.175
RRIRYRPPRLPRPRPRPPFPPRP	-0.0826
RRIRMRPPRLPRPRPRPMQRPRP	0.556
RRIRWRPPRLPRPRPRPCPEPRP	0.0311
RRIRTRPPRLPRPRPRPNKQPRP	-0.207
RRIRRRPPRLPRPRPRPAYQPRP	-0.289
RRIRSRPPRLPRPRPRPLQAPRP	0.302
RRIRVRPPRLPRPRPRPMAMPRP	-0.00688
RRIRHRPPRLPRPRPRPLNMPRP	-1.26
RRIRKRPPRLPRPRPRPGQHPRP	-0.000613
RRIRKRPPRLPRPRPRPVKAPRP	-0.0242
RRIRLRPPRLPRPRPRPHVWPRP	0.198
RRIRSRPPRLPRPRPRPPHTPRP	0.159
RRIRMRPPRLPRPRPRPFLFPRP	0.0343
RRIRIRPPRLPRPRPRPPFWPRP	0.288
RRIRSRPPRLPRPRPRPDRIPRP	-0.249
RRIRGRPPRLPRPRPRPRQNPRP	0.768
